Drawing on article PMC12551704, “Metabolic regulation of behavior by the intestinal enzyme FMO-2” (Science Advances, 2025), this text covers Km, kcat and kcat/Km for 2 molecules.

One series has as its target T1, FMO-2 (Caenorhabditis elegans, UniProt G5EBJ9).
T1 construct: purified FMO-2 protein purchased from GenScript
T1 sequence (G5EBJ9 1-529): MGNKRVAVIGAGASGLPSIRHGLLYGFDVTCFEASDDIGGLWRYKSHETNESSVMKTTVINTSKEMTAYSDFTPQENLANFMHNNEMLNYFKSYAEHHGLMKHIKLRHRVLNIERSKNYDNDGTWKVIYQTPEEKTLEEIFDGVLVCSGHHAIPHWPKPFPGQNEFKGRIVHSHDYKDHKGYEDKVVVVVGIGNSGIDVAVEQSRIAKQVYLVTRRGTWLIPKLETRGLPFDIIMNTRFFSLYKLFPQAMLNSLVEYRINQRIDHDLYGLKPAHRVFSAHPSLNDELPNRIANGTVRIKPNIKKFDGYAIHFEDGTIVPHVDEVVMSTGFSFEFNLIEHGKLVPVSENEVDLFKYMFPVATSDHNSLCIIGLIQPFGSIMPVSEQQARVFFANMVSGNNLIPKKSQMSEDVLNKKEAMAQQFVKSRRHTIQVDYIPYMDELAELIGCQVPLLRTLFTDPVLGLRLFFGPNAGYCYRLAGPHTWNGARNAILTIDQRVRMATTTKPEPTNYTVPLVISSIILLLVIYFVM
Put plainly: NADPH consumption at […] nm, Michaelis-Menten fit. It is filed as biochemical. Particulars: 0.5 mM NADPH, excess FAD, 25 mM sodium phosphate pH 8.5, 0.5 mM DETAPAC, 30 C; 0.1-10 mM substrate.

Substrate in the series “purified protein”: CC(=O)C(=O)O
Nature of the series: purified protein. Particulars: 0.5 mM NADPH, excess FAD, 25 mM sodium phosphate pH 8.5, 0.5 mM DETAPAC, 30 C. It is filed as biochemical, Caenorhabditis elegans.

What is called Km is the concentration of substrate that gives half-maximal velocity. On to `N[C@@H](Cc1c[nH]c2ccccc12)C(=O)O` [tryptophan], for which the Km at FMO-2 was found to be 880 ± 430 µM.

B1: FMO-2 (Caenorhabditis elegans) (protein)
chain: MGNKRVAVIGAGASGLPSIRHGLLYGFDVTCFEASDDIGGLWRYKSHETNESSVMKTTVINTSKEMTAYSDFTPQENLANFMHNNEMLNYFKSYAEHHGLMKHIKLRHRVLNIERSKNYDNDGTWKVIYQTPEEKTLEEIFDGVLVCSGHHAIPHWPKPFPGQNEFKGRIVHSHDYKDHKGYEDKVVVVVGIGNSGIDVAVEQSRIAKQVYLVTRRGTWLIPKLETRGLPFDIIMNTRFFSLYKLFPQAMLNSLVEYRINQRIDHDLYGLKPAHRVFSAHPSLNDELPNRIANGTVRIKPNIKKFDGYAIHFEDGTIVPHVDEVVMSTGFSFEFNLIEHGKLVPVSENEVDLFKYMFPVATSDHNSLCIIGLIQPFGSIMPVSEQQARVFFANMVSGNNLIPKKSQMSEDVLNKKEAMAQQFVKSRRHTIQVDYIPYMDELAELIGCQVPLLRTLFTDPVLGLRLFFGPNAGYCYRLAGPHTWNGARNAILTIDQRVRMATTTKPEPTNYTVPLVISSIILLLVIYFVM
notes: purified FMO-2 protein purchased from GenScript
A word on the kcat: it is the number of substrate molecules converted per active site and unit of time at saturation. A word on the kcat/Km: it is the second-order rate constant that governs catalysis at low substrate concentration. As for B1, in the series “purified protein”, the Km was 590 ± 290 µM, the turnover number (kcat) came out at 35 ± 1 s⁻¹ and the kcat/Km amounted to 59000 M⁻¹ s⁻¹.
